One assay addresses sc16a_human SEC16A (UniProt O15027).
The next assay concerns the target sc16a_mouse Sec16a (UniProt E9QAT4).
Sequence of UniProt E9QAT4 (E9QAT4 whole entry): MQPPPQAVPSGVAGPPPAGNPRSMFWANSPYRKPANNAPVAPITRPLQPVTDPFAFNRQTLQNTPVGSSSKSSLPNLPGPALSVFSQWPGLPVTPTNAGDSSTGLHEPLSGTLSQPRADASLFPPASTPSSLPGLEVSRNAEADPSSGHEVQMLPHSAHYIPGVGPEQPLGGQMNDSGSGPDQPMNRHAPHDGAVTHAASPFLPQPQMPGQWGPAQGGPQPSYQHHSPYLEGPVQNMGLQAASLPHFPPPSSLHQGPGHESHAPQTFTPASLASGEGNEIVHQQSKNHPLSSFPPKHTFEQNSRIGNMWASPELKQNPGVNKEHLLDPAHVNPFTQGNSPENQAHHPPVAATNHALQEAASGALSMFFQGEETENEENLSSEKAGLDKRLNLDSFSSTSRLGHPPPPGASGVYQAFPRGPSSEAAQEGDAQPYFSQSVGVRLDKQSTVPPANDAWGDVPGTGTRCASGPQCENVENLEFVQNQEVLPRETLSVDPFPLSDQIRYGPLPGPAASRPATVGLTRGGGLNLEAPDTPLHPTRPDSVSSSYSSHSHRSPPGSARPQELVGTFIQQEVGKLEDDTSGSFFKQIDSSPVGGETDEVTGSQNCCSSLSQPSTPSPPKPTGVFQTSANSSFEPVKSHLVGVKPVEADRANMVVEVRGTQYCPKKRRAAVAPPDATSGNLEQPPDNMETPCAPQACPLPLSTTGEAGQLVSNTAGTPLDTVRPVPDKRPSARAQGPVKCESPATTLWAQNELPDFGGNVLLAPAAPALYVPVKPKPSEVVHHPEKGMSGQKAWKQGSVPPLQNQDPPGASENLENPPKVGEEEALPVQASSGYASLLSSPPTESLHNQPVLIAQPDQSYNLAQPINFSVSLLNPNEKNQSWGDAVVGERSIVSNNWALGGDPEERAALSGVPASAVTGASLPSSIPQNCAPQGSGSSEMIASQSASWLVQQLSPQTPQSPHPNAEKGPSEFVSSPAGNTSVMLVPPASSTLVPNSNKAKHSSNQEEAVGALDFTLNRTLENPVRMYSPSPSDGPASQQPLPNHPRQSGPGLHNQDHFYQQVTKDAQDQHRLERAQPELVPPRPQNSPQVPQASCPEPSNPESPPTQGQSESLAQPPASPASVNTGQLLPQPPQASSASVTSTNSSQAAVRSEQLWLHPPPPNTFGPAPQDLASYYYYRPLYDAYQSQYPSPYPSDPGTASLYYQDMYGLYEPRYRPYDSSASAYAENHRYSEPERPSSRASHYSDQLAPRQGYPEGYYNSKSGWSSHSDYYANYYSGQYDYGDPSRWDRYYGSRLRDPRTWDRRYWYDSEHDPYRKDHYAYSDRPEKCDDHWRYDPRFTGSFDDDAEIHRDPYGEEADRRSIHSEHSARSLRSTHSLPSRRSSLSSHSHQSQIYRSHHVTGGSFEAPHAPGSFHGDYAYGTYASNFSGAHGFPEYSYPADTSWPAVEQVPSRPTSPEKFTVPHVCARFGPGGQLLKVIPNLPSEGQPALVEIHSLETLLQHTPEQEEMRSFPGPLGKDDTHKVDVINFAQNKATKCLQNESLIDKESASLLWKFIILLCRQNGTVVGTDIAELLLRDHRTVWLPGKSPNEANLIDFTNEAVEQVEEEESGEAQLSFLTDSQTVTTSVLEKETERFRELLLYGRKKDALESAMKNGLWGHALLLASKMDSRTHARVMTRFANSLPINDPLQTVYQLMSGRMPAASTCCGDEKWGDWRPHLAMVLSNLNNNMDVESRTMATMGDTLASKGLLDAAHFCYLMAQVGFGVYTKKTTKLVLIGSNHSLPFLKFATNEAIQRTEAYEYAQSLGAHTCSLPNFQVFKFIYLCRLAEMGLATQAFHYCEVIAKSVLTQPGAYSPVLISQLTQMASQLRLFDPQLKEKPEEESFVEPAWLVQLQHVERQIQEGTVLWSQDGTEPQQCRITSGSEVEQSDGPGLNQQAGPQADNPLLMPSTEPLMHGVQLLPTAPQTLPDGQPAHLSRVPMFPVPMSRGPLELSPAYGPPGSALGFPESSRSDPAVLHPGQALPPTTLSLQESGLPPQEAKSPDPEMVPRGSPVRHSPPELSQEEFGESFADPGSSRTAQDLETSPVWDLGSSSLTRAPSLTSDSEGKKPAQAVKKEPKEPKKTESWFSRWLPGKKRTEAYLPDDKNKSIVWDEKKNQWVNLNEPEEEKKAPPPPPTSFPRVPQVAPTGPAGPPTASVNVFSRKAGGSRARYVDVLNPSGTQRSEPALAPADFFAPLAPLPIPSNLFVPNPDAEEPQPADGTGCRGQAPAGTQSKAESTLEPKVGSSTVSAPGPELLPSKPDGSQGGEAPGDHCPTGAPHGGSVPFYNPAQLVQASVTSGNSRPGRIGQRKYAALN

Sequence of UniProt O15027 (O15027 whole entry): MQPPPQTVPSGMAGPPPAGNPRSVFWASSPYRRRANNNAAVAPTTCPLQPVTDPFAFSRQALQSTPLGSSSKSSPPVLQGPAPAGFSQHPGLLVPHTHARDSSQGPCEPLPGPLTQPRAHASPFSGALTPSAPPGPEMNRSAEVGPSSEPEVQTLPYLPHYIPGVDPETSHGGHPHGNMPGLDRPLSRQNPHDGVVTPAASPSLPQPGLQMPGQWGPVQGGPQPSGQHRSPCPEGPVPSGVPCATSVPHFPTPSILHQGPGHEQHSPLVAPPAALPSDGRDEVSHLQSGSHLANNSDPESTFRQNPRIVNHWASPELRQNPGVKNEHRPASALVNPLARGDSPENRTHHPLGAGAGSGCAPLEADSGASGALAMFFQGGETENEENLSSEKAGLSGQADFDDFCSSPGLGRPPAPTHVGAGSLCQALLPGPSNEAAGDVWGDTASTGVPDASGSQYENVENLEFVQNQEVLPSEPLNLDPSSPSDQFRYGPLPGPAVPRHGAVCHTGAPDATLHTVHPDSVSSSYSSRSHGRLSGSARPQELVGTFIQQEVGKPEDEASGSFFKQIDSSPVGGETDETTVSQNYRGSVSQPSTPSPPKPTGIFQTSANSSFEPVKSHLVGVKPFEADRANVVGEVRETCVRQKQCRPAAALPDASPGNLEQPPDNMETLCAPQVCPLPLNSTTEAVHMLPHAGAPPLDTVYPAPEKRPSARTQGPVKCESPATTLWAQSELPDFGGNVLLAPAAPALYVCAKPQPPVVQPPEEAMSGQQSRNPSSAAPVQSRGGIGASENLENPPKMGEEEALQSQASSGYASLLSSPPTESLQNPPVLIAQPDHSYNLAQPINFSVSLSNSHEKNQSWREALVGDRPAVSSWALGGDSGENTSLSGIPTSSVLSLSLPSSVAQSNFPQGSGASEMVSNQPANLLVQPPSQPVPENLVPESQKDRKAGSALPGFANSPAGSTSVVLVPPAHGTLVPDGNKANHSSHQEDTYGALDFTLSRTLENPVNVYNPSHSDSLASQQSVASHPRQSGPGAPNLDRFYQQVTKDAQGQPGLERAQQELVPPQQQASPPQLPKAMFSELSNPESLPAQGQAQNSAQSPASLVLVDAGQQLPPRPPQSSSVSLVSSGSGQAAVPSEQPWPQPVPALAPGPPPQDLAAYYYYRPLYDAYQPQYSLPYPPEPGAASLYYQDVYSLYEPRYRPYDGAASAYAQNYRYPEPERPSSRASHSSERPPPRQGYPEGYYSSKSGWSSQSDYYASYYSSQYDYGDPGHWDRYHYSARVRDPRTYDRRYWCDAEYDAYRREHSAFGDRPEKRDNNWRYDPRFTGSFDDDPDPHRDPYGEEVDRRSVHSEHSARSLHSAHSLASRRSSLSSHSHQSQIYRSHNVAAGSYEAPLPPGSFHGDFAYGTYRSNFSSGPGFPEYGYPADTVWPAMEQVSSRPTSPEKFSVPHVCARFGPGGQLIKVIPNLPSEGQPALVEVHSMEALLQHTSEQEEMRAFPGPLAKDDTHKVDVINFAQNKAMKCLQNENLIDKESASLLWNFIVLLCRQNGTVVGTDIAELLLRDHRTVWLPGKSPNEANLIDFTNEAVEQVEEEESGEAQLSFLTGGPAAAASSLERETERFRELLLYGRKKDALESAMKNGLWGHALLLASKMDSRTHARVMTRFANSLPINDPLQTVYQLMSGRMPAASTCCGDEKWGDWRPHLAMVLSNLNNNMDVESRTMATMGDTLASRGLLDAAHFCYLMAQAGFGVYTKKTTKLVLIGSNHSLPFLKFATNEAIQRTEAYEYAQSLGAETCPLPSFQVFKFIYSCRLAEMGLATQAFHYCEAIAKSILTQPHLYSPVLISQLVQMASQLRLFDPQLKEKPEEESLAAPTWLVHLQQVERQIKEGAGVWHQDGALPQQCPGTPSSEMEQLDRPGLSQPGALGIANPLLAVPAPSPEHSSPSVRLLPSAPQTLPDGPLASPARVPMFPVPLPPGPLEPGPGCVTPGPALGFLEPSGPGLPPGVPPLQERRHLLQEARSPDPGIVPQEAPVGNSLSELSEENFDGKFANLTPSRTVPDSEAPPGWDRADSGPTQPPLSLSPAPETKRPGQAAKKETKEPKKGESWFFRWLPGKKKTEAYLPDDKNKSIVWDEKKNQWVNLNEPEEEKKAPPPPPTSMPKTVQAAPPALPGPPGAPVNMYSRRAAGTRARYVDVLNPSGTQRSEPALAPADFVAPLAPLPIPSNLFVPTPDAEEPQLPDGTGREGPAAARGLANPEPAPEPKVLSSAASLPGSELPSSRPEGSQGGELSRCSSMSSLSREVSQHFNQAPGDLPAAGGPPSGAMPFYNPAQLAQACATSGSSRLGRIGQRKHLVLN

For “Leucine-rich repeat serine/threonine-protein kinase 2 (Homo sapiens), Q5S007 K1347A”, the “effect of a mutation on the interaction” value in the assay with sc16a_human SEC16A and in the assay with sc16a_mouse Sec16a was “disrupting interaction strength” throughout.

Take “Leucine-rich repeat serine/threonine-protein kinase 2 (Homo sapiens), Q5S007 R1441C”: the “effect of a mutation on the interaction” value is “decreasing interaction strength” in the assay with sc16a_human SEC16A and “disrupting interaction strength” with sc16a_mouse Sec16a.

These data come from IntAct's records for PubMed 25201882.
